Test results published in paper PMC3544922.
Several values for one entry are separate records, joined by “and”; a condition that tells them apart may be missing. Equal entries are not always repeated.

Biological target: recombinant HIV-1 integrase (HIV-1)
Assay: atomic force microscopy; 50 ng integrase incubated with 10 ng target DNA xkyk in binding buffer with MnCl2 at 30°C, dialysed against PBS 48 h at 4°C, digested with ScaI, adsorbed on mica with spermidine, tapping mode in air; size and volume of integrase bound on DNA (n = 123)

In the case of recombinant HIV-1 integrase (enzyme), the stoichiometry N is reported as 2 and 4.
